From patent US20200249231

Key:
[1] = target: T1, EYALQ (5-mer on peptide array)
T1 chain: EYALQ

[2] = target: T2, DYWLQ (5-mer on peptide array)
T2 chain: DYWLQ

[3] = target: T3, LRYRQ (5-mer on peptide array)
T3 chain: LRYRQ

[4] = target: T4, Thermus thermophilus SlyD FKBP domain with grafted KalbTG Q-tag RYRQR, 8xHis
T4 chain: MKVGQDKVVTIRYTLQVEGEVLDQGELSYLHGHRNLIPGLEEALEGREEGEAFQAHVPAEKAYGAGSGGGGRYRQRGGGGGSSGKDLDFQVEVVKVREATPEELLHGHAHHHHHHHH

Z-[GGGYKYRQGGGG] = target: T5, Z-[GGGYKYRQGGGG]
T5 chain: GGGYKYRQGGGG

[5] = target: T6, VRQRQ (5-mer on peptide array)
T6 chain: VRQRQ

[6] = target: T7, KYRYK (5-mer on peptide array)
T7 chain: KYRYK

[7] = target: T8, DWVAQ (5-mer on peptide array)
T8 chain: DWVAQ

[8] = target: T9, YRQRA (5-mer on peptide array)
T9 chain: YRQRA

[9] = target: T10, RWKFK (5-mer on peptide array)
T10 chain: RWKFK

[10] = target: T11, FYKYK (5-mer on peptide array)
T11 chain: FYKYK

[11] = target: T12, DWYLQ (5-mer on peptide array)
T12 chain: DWYLQ

[12] = target: T13, YRQSR (5-mer on peptide array)
T13 chain: YRQSR

[13] = target: T14, AYRTK (5-mer on peptide array)
T14 chain: AYRTK

[14] = target: T15, DYVAQ (5-mer on peptide array)
T15 chain: DYVAQ

[15] = target: T16, YQKWK (5-mer on peptide array)
T16 chain: YQKWK

[16] = target: T17, RFSQR (5-mer on peptide array)
T17 chain: RFSQR

[17] = target: T18, YKSFK (5-mer on peptide array)
T18 chain: YKSFK

[18] = target: T19, QRQTR (5-mer on peptide array)
T19 chain: QRQTR

Z-[GGGRYGKSGGGG] = target: T20, Z-[GGGRYGKSGGGG]
T20 chain: GGGRYGKSGGGG

[19] = target: T21, FRQRQ (5-mer on peptide array)
T21 chain: FRQRQ

Z-[GGGARSKLGGGG] = target: T22, Z-[GGGARSKLGGGG]
T22 chain: GGGARSKLGGGG

[20] = target: T23, ARSKL (5-mer on peptide array)
T23 chain: ARSKL

Z-[GGGRYSQRGGGG] = target: T24, Z-[GGGRYSQRGGGG]
T24 chain: GGGRYSQRGGGG

Z-[GGGRYRQRGGGG] = target: T25, Z-[GGGRYRQRGGGG]
T25 chain: GGGRYRQRGGGG

[21] = target: T26, PYKYK (5-mer on peptide array)
T26 chain: PYKYK

[22] = target: T27, QYRQR (5-mer on peptide array)
T27 chain: QYRQR

[23] = target: T28, YQRQR (5-mer on peptide array)
T28 chain: YQRQR

[24] = target: T29, RYSYK (5-mer on peptide array)
T29 chain: RYSYK

Z-[GGGQRQRQGGGG] = target: T30, Z-[GGGQRQRQGGGG]
T30 chain: GGGQRQRQGGGG

[25] = target: T31, DYFLQ (5-mer on peptide array)
T31 chain: DYFLQ

B1: Kutzneria albida microbial transglutaminase, activated enzyme (KalbTGt3) (protein)
chain: APLAPPLAEDRSYRTWRVEDYVEAWERYHGREMTEDERENLARGCIGVTVVNLNREDLSNPPLNLSFGSLRTAEAVQAALNKIVDTHPSPAQYEAAVAKDPILKRLKNVVKALPSWIDSAKLKASIFSKRFYSWQNPDWSEERAHTTYRPDRETDQVDMSTYRYRARPGYVNFDYGWFDQDTNTWWHANHEEPRMVVYQSTLRHYSRPLQDFDEQVFTVAFAKKDGGGSGHHHHHHHH
- 5-mer peptide array signal with KalbTG [1]: exhibited relatively lower signal on the KalbTG array
- 5-mer peptide array signal with KalbTG [2]: exhibited relatively lower signal on the KalbTG array
- 5-mer peptide array, incorporation of biotinylated amine donor [3]: the top 22 glutamine-donor substrates identified on the 5-mer peptide array with KalbTG
- labeling yield with KalbTG K-tag-Cy3 (SDS-PAGE, in-gel fluorescence) [4]: approximately 70% yield of a labeled protein species after 15 minutes
- Reaction rate in solution (pmol/s), GLDH-coupled assay (Z-[GGGYKYRQGGGG]): 4 pmol/s
- 5-mer peptide array, incorporation of biotinylated amine donor [5]: the top 22 glutamine-donor substrates identified on the 5-mer peptide array with KalbTG
- 5-mer peptide array, incorporation of biotinylated glutamine donor Z-APRYRQRAAGGG-PEG-biotin [6]: the top 17 lysine-donor substrates identified on the 5-mer peptide array with KalbTG
- 5-mer peptide array signal with KalbTG [7]: exhibited relatively lower signal on the KalbTG array
- 5-mer peptide array, incorporation of biotinylated amine donor [8]: the top 22 glutamine-donor substrates identified on the 5-mer peptide array with KalbTG
- 5-mer peptide array, incorporation of biotinylated glutamine donor Z-APRYRQRAAGGG-PEG-biotin [9]: the top 17 lysine-donor substrates identified on the 5-mer peptide array with KalbTG
- 5-mer peptide array, incorporation of biotinylated glutamine donor Z-APRYRQRAAGGG-PEG-biotin [10]: the top 17 lysine-donor substrates identified on the 5-mer peptide array with KalbTG
- 5-mer peptide array signal with KalbTG [11]: exhibited relatively lower signal on the KalbTG array
- 5-mer peptide array, incorporation of biotinylated amine donor [12]: the top 22 glutamine-donor substrates identified on the 5-mer peptide array with KalbTG
- Array signal (log2) [13]: 12.6 log2
- 5-mer peptide array signal with KalbTG [14]: exhibited relatively lower signal on the KalbTG array
- 5-mer peptide array, incorporation of biotinylated glutamine donor Z-APRYRQRAAGGG-PEG-biotin [15]: the top 17 lysine-donor substrates identified on the 5-mer peptide array with KalbTG
- 5-mer peptide array, incorporation of biotinylated amine donor [16]: the top 22 glutamine-donor substrates identified on the 5-mer peptide array with KalbTG
- 5-mer peptide array, incorporation of biotinylated glutamine donor Z-APRYRQRAAGGG-PEG-biotin [17]: the top 17 lysine-donor substrates identified on the 5-mer peptide array with KalbTG
- 5-mer peptide array, incorporation of biotinylated amine donor [18]: the top 22 glutamine-donor substrates identified on the 5-mer peptide array with KalbTG
- Reaction Rate in Solution (pmol s^-1), GLDH-coupled assay with 200 µM glutamine donor (Z-[GGGRYGKSGGGG]): 2.66 pmol/s
- 5-mer peptide array, incorporation of biotinylated amine donor [19]: the top 22 glutamine-donor substrates identified on the 5-mer peptide array with KalbTG
- Array signal (log2) [19]: 8.93 log2
- Reaction Rate in Solution (pmol s^-1), GLDH-coupled assay with 200 µM glutamine donor (Z-[GGGARSKLGGGG]): 3.87 pmol/s
- Array signal (log2) [20]: 12 log2
- Reaction rate in solution (pmol/s), GLDH-coupled assay (Z-[GGGRYSQRGGGG]): 3.22 pmol/s
- Reaction rate in solution (pmol/s), GLDH-coupled assay (Z-[GGGRYRQRGGGG]): 3.6 pmol/s
- 5-mer peptide array, incorporation of biotinylated glutamine donor Z-APRYRQRAAGGG-PEG-biotin [21]: the top 17 lysine-donor substrates identified on the 5-mer peptide array with KalbTG
- 5-mer peptide array, incorporation of biotinylated amine donor [22]: the top 22 glutamine-donor substrates identified on the 5-mer peptide array with KalbTG
- Array signal (log2) [22]: 8.7 log2
- 5-mer peptide array, incorporation of biotinylated amine donor [23]: the top 22 glutamine-donor substrates identified on the 5-mer peptide array with KalbTG
- 5-mer peptide array, incorporation of biotinylated glutamine donor Z-APRYRQRAAGGG-PEG-biotin [24]: the top 17 lysine-donor substrates identified on the 5-mer peptide array with KalbTG
- Reaction rate in solution (pmol/s), GLDH-coupled assay (Z-[GGGQRQRQGGGG]): 2.98 pmol/s
- 5-mer peptide array signal with KalbTG [25]: exhibited relatively lower signal on the KalbTG array
